Source: the DeepSol protein solubility set

Assay: soluble on expression in E. coli; label from the status in PepcDB or PDB records

Sequence	soluble on expression in E. coli
MSLNWEHLLSLKRQGDTAKRLRIEQDDTRLGFEVDYDRIIFSAPFRSLQDKTQVIPLSKTDFVHTRLTHSLEVSVVGRSLGRMVGKKLLEKYPHLEQVYGYKFNDFGAIVAAAALAHDIGNPPFGHSGEKAIGEFFKNGYGKRYKDSLTAKEYQDLIKFEGNANGFKVLSQSKPGAQGGLRLSYATLGAFMKYPKESLPHKPSDHIADKKYGFFQSERALFEDVAQELGLLKRSTTDDVSWSRHPLAYLVEAADDICYTIIDFEDGINLGLIPEEYALEYMVKLVGQTIDRNKYNALQETSDRVSYLRALAIGTLINESVDTFMKYEEEILAGTFDQSLIDKSNYQAQITDIINLSIERIYNSREVIEKEIAGYEILSTLLEARCRALDNNDTHYNQLIQQLLAPNDHSEKSLYENLIQICAEVSTMTDGKALRNYKKIKGLDEGHHHHHH	soluble
MSLPHALIVEDDPNSLSGLSAILAADGFSVDTATTIAEARAALTRFIPDVVLVDLNLPDGSGLDLLQHLPAHPPGGALPVIVMTGNATVESAIEGLRHGIWDYLLKPVNIPRLRSLLARIPRPYELTEEVQTLRASLRQLGRFGSMLGRSGAIQHVYDTIEHIAPTEAAVLISGETGTGKQIAARTMHDMSRRRKGPFITFDCRSANSAGVQRSLDSLLFGHERGAFNGAEQREPGLFEQASGGTLFIEEIAELPRAQQEALLRALDSQTFMRVGGTNQVVTDFRLIASTRKAPRAAVADGSLHEDLALRLEAAAVTLPPLRERGEDPALIAQAVVDELNHEGLTRGSAESAKQVAPNFLRECLAYEWPGNVRELQDRVRRAYHASGDVLESLRADEAGSEGHHHHHH	soluble
MSLPILTIREVCNINHWGIGYYDVDDSGEIIVRPNPSQHNQTVSLQKLTEAVQQKHQARLPVLFCFPQILEHRLRDINRAFQTAREECGYKGGYCLVYPIKVNQHRRVIESLMSSGQPHGLEAGSKAELMAVLAHAGNRQTLIVCNGYKDREYIRFALMGEKLGHQVYLVIEKLSEIQMVLEEAEKLGIKPRLGVRARLASQGSGKWQSSGGEKSKFGLSASQVLQLVDILKQKNRLDCLQLLHFHLGSQLGNIRDVATGVHESARFYVELHKLGVNIRCFDVGGGLGVDYEGNRTQSDCSVNYSLNEYAATVVWGISQACLEHGLPHPTIITESGRGITAHHAVLVANVIGVERYKPRRLDAPSPEAPRVLHSMWETWTDISASREKRSLRSWIHEGQFDLADVHNQYNVGLLSLAQRAWAEQLYLNICHEVGELFNEKHRSHRTIIDELQERFADKLYVNFSLFQSLPDAWGIDQLFPVCPITGLNEPIARRAVLLDITCDSDGTIDHYIDGDGIAGTMPMPDYPEEEPPLLGFFMVGAYQEILGNMHNLFGDTATADVVVGEDGQFTVIDYDEGNTVADMLEYVYQDPKELMKRYREQIEHSDLPASQAMSFLKELEAGLNGYTYLEDEEGHHHHHH	soluble
MSLPIRVPDELPAVNFLREENVFVMTTSRASGQEIRPLKVLILNLMPKKIETENQFLRLLSNSPLQVDIQLLRIDSRESRNTPAEHLNNFYCNFEDIQEQNFDGLIVTGAPLGLVEFNDVAYWPQIKQVLEWSKDHVTSTLFVCWAVQAALNILYGIPKQTRTDKLSGVYEHHILHPHALLTRGFDDSFLAPHSRYADFPAALIRDYTDLEILAETEEGDAYLFASKDKRIAFVTGHPEYDAQTLAQEYFRDVEAGLDPEVPYNYFPHNDPQNKPRASWRSHGNLLFTNWLNYYVYQITPYDLRHMNPTLDEGHHHHHH	soluble
MSLPKITKIEVQKKNKERFNLFLDEQFEMGIDIDTLVKFNLKKGQQLEAADMAEIQKYDHYRIGLNKAIQYLSYKKRTEKEVIQYLQKEEISEQAISEVIEYCYREKLIDHQDYAESLKNTMIRTTDKGPKIYQQKLYQLGIEPNIIEIFTELYREQQELDDIIQIAEKISKTKKGPQNKVKEKVMQSLIQKGFEMETIHAVLNEMDFTQDEAVLDDLLQRDLEKIYNKNRKKYTQQKLISKTIEGLMRKGYKYDKIKAKLEESGIADGTEEIEEGHHHHHH	soluble
MSLPLSKTLVQKLQQAGMAIANNQPQIKFTPLSISDEKGKVALDLNIALVPNPKFDLMHSGLYKQFKDFSINFDVNKETAISLLSKFVPENQKQDLVYRMDELIAEGEANGIIVNTDKTVTLTLALENNDLKLNGKPIPEEQLKVVLFILVMGGFGREGHHHHHH	soluble
MSLPPILTSQIGPDSIELRLLVAADLEYFNGHFPEQAVLPGVTQLDWAVRLGCEHFGYSAAVANLEVLKFQQLILPGQEVTLVISHNATKEKLTFAYSDGDHRYASGRISFASKQDDGLEHHHHHH	not soluble
MSLPRFSNVSYEQYWALREQSDEWLEYIDGAVYMAPSPSIKHQLVSSNLHTELGLYFRGKPCNVFAAPTDIELASDKFPDRKVVIPDLSVICDSKGFTETKYVGVPTLIVEILSPSNQAHDLVTKFNLYMAYGVKEYWIVNPMKEAITVYTLNEEGLYEQADVKAGTGVVQSACFPRLEVALEDVFR	not soluble
MSLPRLGIILHGVTGRMGYNQHLVRSILAIRDRGGITLQSGERLEIDPIIVGRNRDKMEQLAKRHDIARWSTDLDAALADPNDQIFFDAGTTLMRAELIGRALDAGKHVYCEKPISDDLRTAVKLARKARASGLKHGVVQDKLFLPGLRKLALLRDSGFFGKILSVRGEFGYWVFEGDWGVPAQRPSWNYRKKDGGGIILDMLCHWRYVLDNLFGEVKAVSCLGATHIPSRIDEQGRAYDCDTDDAAYATFELEGGIVAHINSSWAVRVRRDDLVTFQVDGTHGSAVAGLTKCWTQHRVNTPKPVWNPDQPQTIDFYRTWDEVPDTQAFDNGFKAQWEMFLRHVAEDGPWPHGLEAGAKGVQLAELGLKSWAERRWLDVPELEGHHHHHH	not soluble
MSLPRRPTSSAREGDGGKRSGHTFAAVEAIGRALPDVEVTTAWGQPALKVHGKMFVCVASHKSAEPNSLVVMMAFADRDALVEDDPATYYLRKHYLNHPCVLVRLTRIRLDALRDLVVGAHRLVNVQMRSKSDIGSQGTSRPLRDRREGHHHHHH	soluble
MSLPSERELGKELEVSRLTVRKAIQELEQKGILYKIQGKGTFVNDRKKAGEHGNKIGVISHLYKGVFMEILEGIEEGLESESYEYLLRNSQNDYKKEENIIQAMKEEGVSGFIISPVEDQKDSNVIFNLKAEGYPIVLIDRKLNYCETDCVLSDNIDGGFKATEYLIKLGHSRIAFLTYEFRKTSSVRDRIKGYRYALKLNQLELDERLLFSYNKDLSREEKNKILYNFIKENKPTAIIGVHNDVALDVVKMCRANNISIPEDISIICFDNTDIVRHLEVPLTTLVQDARKIGYDAAKLIVKKINSQEETGIMNQIYHPVKLIERNSCKSILQKNEGHHHHHH	soluble
MSLPTTIQAISAEAINLPLTEPFAIASGAQAVAANVLVKVQLADGTLGLGEAAPFPAVSGETQTGTSAAIERLQSHLLGADVRGWRKLAAMLDHAEHEAAAARCGLEMAMLDALTRHYHMPLHVFFGGVSKQLETDMTITAGDEVHAAASAKAILARGIKSIKVKTAGVDVAYDLARLRAIHQAAPTAPLIVDGNCGYDVERALAFCAACKAESIPMVLFEQPLPREDWAGMAQVTAQSGFAVAADESARSAHDVLRIAREGTASVINIKLMKAGVAEGLKMIAIAQAAGLGLMIGGMVESILAMSFSANLAAGNGGFDFIDLDTPLFIAEHPFIGGFAQTGGTLQLADVAGHGVNLEGHHHHHH	soluble
MSLQASEQVPSIQIGEPGVTVEAGDHICAFYPTLAERDEILLPYLSEGMLAGEKCIAVLDTDDLDGIRQAVSGQGLPSPKDGNQLELRRSRNAYLANGSFETEAMLKFWEDHVGAAVAEGFPFARVAGEMTWALSNLPGVDQLVGYEAKLNRLLPRYPQVVLCLYELERFDGEVLVDVLKTHPKVLLGGMVLDNPYYLEPEEFLASREGHHHHHH	soluble
MSLQDDDFSLFKSEMRGVKRISVDRADTGKPRNDRQQLKQRQLNASVRNDEIRVDGLSDQFVIDVGPEDELSWARDGVQESQLRKLKQGLVPFDGSLDLHGMSVEKARQTLWDFLAEATRLEIRCVRVTHGKAARKDGRSPLVKSHVNTWLRQHPQVLGFTSCLPRHGGTGSVYVMLRRTMLEGRDEEGHHHHHH	soluble
MSLQDVDFHIPFPSRRSPDFERARADHLSWPRALGLIGTDAAAERHSRGGYADLAARFYPSATGADLDLGVDLMSWFFLFDDLFDGPRGEDPQETRKLTDAVAAALDGPLPTSAPPIAHGFADVWRRTCQGMSPAWRARSARHWRNYFSGYVDEAVSRHLNTPYDSAGHYLAMRRQTIGVQPTVDLAERSCHCEVPQRVFDSAVLFAMLQIATDTNLILNDIASLEKEEARGELNNMVFILMREHGWTRGRSIAHMQDGVRTRLEQFLLLEACLPKVYDTFELTAQERESAEKYRMDGVRSVIRGSYDWHRSSGRYAADYAEGHHHHHH	soluble
MSLQEELSVLLKAQYPLIYLVTSEEERAEQAVYRIVQEVTRHQRLFVWTVTHGFREYGVAQQKTHHNTMSPEAAIEWVVRQEPGIFIFKDLHPFISSPAVTRWLREAIASFKGTEKAIILMSPYQETPIELEKDVVVLDFALPDLVTLDGVLGQQLGKSRHALGEDSREKLLKAALGLTKDEAEKVYRKAYVKAGQLTEGEVEIVLSEKKQMIRRNEGHHHHHH	soluble
MSLQHNELKTPYFMINEDKLIANLEKAKQLKEISGVKLVLALKCFSTWGVFDIIKPYLDGTTSSGPFEVKLGYETFGGETHAYSVGYSEDDVREVADICDKMIFNSQSQLAAYRHIVEGKASIGLRLNPGVSYAGQDLANPARKFSRLGVQADHIKPEVFEGIDGVMFHMNCENKDVDAFIGLLDAISEQFGEYLNKLDWVSMGGGVFFTWPGYDIEKLGLALKAFSEKHGVQMYLEPGEAIITKTTDLVVTVVDIVENVKKTAIVDSATEAHRLDTLIYNEPASILEASDNGEHEYVIGSCSCLAGDQFCVANFDQPLEIGQRLHILDSAGYTMVKLNWFNGLRMPSVYCERSSGEIQKLNEFDYSDFKRSLSEGHHHHHH	not soluble
MSLQLDLLPPQDRGQVHSVFVVVPRFNLTTLITMIETMRIGNYLSSERLFSWEVTSFDGLNLGASNGVRVHLDVEPDQTAPADQVFVLASWGGEHYQNKALASWLRKRARQGERICAVELGCYLVARAGLMDGKEATTHWSWINGFQEKFDQISVVEQLFTIDGRILTCAGGMAGVDLMLRLIEQSHGAGFSGEIADQMLHNEGHHHHHH	soluble
MSLQLKSEKARIILSGEPTLLIDKGKIDISALKSQRLNINDLMEELRLKNYFNVEDIEYAILETSGQISLIPKTHLTNATKEDLNLKVKQENVPITIILDGKVNTDNIKYLNKDADWLMKELKKNKIDSPKDVFLALIDSKGKFYYQKYNNEGHHHHHH	not soluble
MSLQPSKRYEIGISQTIGKNDRMQDTANVLGELFPNIDIIGIFDGHNGEEAARYCLISMKNEFNCLNPKDCEHQLPQIFESIHNNISSQTISGTTASICIIRSDDVVLAHVGDSPIYFYENGGKVINIKGVDRVNGQINLSRSLGDKLLQPPLTYKPDISIHSLSMKYIVIVTDGVTDSLSDSEMEIILSQPLSPDQIAATIRNNAFINGSVDNISVIVIQIIEGHHHHHH	soluble
MSLQSEKTEAVVTLGANLTKSERLQMLDAFGVKANEVKIIDVTNQDIREQLGLDTSKPIPASSQSISSSYVVVKDKGGINVTTNNLTEVTGSMLANALLTSGVNNADVKADAPFKVTGTAALAGILKGFEDASGEELSLPKKEAAREEISLTNNLSNAKTKDGQTLGKDEAAVVVNDIKTDVIKDKPKNDEEIGKIVNNVTNNYNILLTQGQQEQTIKFMSKINDLDYNYGAMKESLNQMNDKLQQILKDTGKQLEESGLLEKALNGIKNVLVDIKDFLVNMFSSASEKVKDGITYDENGNIVIKTGNNSDESKNEESIQDKPQTQSNDNNQNQENEQGQNQTKEGHHHHHH	not soluble
